Experimental data taken from patent US20250388688A1 (ETHYREAL BIO, published 2025).

Legend:
[1] = molecular target: T1, soluble TSHR protein (ELISA coat) (human, UniProt P16473 22-260, limits assumed); assay: ELISA, plate coated with soluble TSHR, antibody at 100 nM, anti-human IgG Fc-HRP (blank 0.052)
[2] = molecular target: T1, soluble TSHR protein (ELISA coat); assay: ELISA, plate coated with soluble TSHR, antibody at 300 nM, anti-human IgG Fc-HRP (blank 0.055)
[3] = molecular target: T1, soluble TSHR protein (ELISA coat); assay: ELISA, plate coated with soluble TSHR, antibody at 33.3 nM, anti-human IgG Fc-HRP (blank 0.051)
[4] = molecular target: T1, soluble TSHR protein (ELISA coat); assay: ELISA, plate coated with soluble TSHR, antibody at 100 nM, anti-human IgG Fc-HRP;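 note: binding of antibody variants to soluble TSHR coated at 2 µg/ml, with colour developed using TMB substrate and stopped with H2SO4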
Experimental: (§1) Select TSHR antibody variants were tested for their ability to bind TSHR in an ELISA. Briefly, soluble TSHR protein was coated onto a plate at 2 μg/ml in phosphate buffered saline (PBS). The plate was washed with PBS and blocked with 4% skim milk in PBS.
(§2) Following wash steps with 1×PBS-Tween 0.05%, bound human IgG was detected with peroxidase conjugated goat anti-human IgG (Fc specific)-HRP at 1:5000 dilution and the ELISA was developed with TMB reagent followed by H2SO4.

[5] = molecular target: T1, soluble TSHR protein (ELISA coat); assay: ELISA, plate coated with soluble TSHR, antibody at 300 nM, anti-human IgG Fc-HRP;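 note: TSHR coated at 2 µg/ml, bound antibody revealed by goat anti-human IgG Fc HRP, color developed with TMB and stopped with H2SO4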
Experimental: as §1, §2

[6] = molecular target: T1, soluble TSHR protein (ELISA coat); assay: ELISA, plate coated with soluble TSHR, antibody at 33.3 nM, anti-human IgG Fc-HRP;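 note: binding of antibody variants to plate-bound soluble TSHR (coated at 2 µg/ml), with bound human IgG detected by HRP conjugate and colour developed using TMB substrate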
Experimental: as §1, §2

[7] = molecular target: T2, Soluble TSHR (22-260) protein (human, UniProt P16473 22-260); assay: SPR (Biacore T200, 25 C), antibody captured on anti-human Fc, soluble TSHR (22-260) as analyte, 1:1 fit;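 note: antibodies captured at 0.1 ug/mL on a CM5 sensor chip bearing anti-human Fc, with HBS-EP+ running buffer at pH 7.4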
T2 construct: range 22-260
Experimental: Measurements were taken on a Biacore T200 at 25 C using a CM5 chip coated with anti-human Fc. Test antibodies were captured at 0.1 ug/mL in HBS-EP+ (10 mM HEPES pH7.4, 150 mM NaCl, 3 mM EDTA, 0.05% Tween 20) assay buffer. […] A 1:1 binding kinetics fit was used to calculate kinetic parameters.

Row | Molecule | ELISA (OD 450) at 100 nM [1] [OD 450] | ELISA (OD 450) at 300 nM [2] [OD 450] | ELISA (OD 450) at 33.3 nM [3] [OD 450] | ELISA (OD 450) at 100 nM [4] [OD 450] | ELISA (OD 450) at 300 nM [5] [OD 450] | ELISA (OD 450) at 33.3 nM [6] [OD 450] | Kd [7] [nM] | koff [7] [s⁻¹] | kon [7] [M⁻¹ s⁻¹]
1 | TSHB-15 (antibody, V domains shown) VH: EVQLVQSGAEVKKPGQSLKISCKASGYSLTDNWIGWVRQKPGKGLEWMGIIYPGDSDTRYSPSFQGQVTISADKSINTAYLQWSSLKASDTAIYYCVGLDWNYNPLRYWGPGTLVTVSS VL: QSVLTQPPSVSAAPGQKVTISCSGSSSDIGSNYVSWYQQLPGTAPKLLIYDNNKRPSGIPDRFSGSKSGTSATLGITGLQTGDEADYYCGTWDSRFGIAVFGGGTQLTVL | – | – | – | 0.517 | 0.569 | 0.443 | 3.08 | 0.000372 | 121000
2 | TSHB-18 (antibody, V domains shown) VH: EVQLVQSGAEVKKPGQSLKISCKASGYSLTDNWIGWVRQKPGKGLEWMGIIYPGDSDTRYSPSFQGQVTISADKSINTAYLQWSSLKASDTAIYYCVGLDWNYNPLRYWGPGTLVTVSS VL: QSVLTQPPSVSAAPGQKVTISCSGSSTDIGSNYVSWYQQLPGTAPKLLIYDNNKRPSGIPDRFSGSKSGTSATLGITGLQTGDEADYYCGTWDSRLGIAVFGGGTQLTVL | – | – | – | 0.495 | 0.55 | 0.42 | 2.94 | 0.000368 | 125000
3 | TSHB-16 (antibody, V domains shown) VH: EVQLVQSGAEVKKPGQSLKISCKASGYSLTDNWIGWVRQKPGKGLEWMGIIYPGDSDTRYSPSFQGQVTISADKSINTAYLQWSSLKASDTAIYYCVGLDWNYNPLRYWGPGTLVTVSS VL: QSVLTQPPSVSAAPGQKVTISCSGSSSDIGANYVSWYQQLPGTAPKLLIYDNNKRPSGIPDRFSGSKSGTSATLGITGLQTGDEADYYCGTWDSRLGIAVFGGGTQLTVL | – | – | – | 0.487 | 0.566 | 0.443 | 2.7 | 0.000385 | 142000
4 | TSHB-20 (antibody, V domains shown) VH: EVQLVQSGAEVKKPGQSLKISCKASGYSLTDNWIGWVRQKPGKGLEWMGIIYPGDSDTRYSPSFQGQVTISADKSINTAYLQWSSLKASDTAIYYCVGLDWNYNPLRYWGPGTLVTVSS VL: QSVLTQPPSVSAAPGQKVTISCSGSSSNIGSNYVSWYQQLPGTAPKLLIYDNNKRPSGIPDRFSGSKSGTSATLGITGLQTGDEADYYCGTWDSRLGIAVFGGGTQLTVL | – | – | – | 0.465 | 0.54 | 0.411 | 2.77 | 0.000301 | 109000
5 | TSHB-17 (antibody, V domains shown) VH: EVQLVQSGAEVKKPGQSLKISCKASGYSLTDNWIGWVRQKPGKGLEWMGIIYPGDSDTRYSPSFQGQVTISADKSINTAYLQWSSLKASDTAIYYCVGLDWNYNPLRYWGPGTLVTVSS VL: QSVLTQPPSVSAAPGQKVTISCSGSSSDIGSLYVSWYQQLPGTAPKLLIYDNNKRPSGIPDRFSGSKSGTSATLGITGLQTGDEADYYCGTWDSRLGIAVFGGGTQLTVL | – | – | – | 0.402 | 0.475 | 0.357 | 8.25 | 0.000407 | 49400
6 | TSHB-19 (antibody, V domains shown) VH: EVQLVQSGAEVKKPGQSLKISCKASGYSLTDNWIGWVRQKPGKGLEWMGIIYPGDSDTRYSPSFQGQVTISADKSINTAYLQWSSLKASDTAIYYCVGLDWNYNPLRYWGPGTLVTVSS VL: QSVLTQPPSVSAAPGQKVTISCSGSSSDIGSNWVSWYQQLPGTAPKLLIYDNNKRPSGIPDRFSGSKSGTSATLGITGLQTGDEADYYCGTWDSRLGIAVFGGGTQLTVL | – | – | – | 0.47 | 0.547 | 0.405 | 3.12 | 0.000369 | 118000

Next, values leading:

Row | ELISA (OD 450) at 100 nM [1] [OD 450] | ELISA (OD 450) at 300 nM [2] [OD 450] | ELISA (OD 450) at 33.3 nM [3] [OD 450] | ELISA (OD 450) at 100 nM [4] [OD 450] | ELISA (OD 450) at 300 nM [5] [OD 450] | ELISA (OD 450) at 33.3 nM [6] [OD 450] | Kd [7] [nM] | koff [7] [s⁻¹] | kon [7] [M⁻¹ s⁻¹] | Molecule
7 | 0.057 | 0.055 | 0.063 | – | – | – | – | – | – | human IgG1 isotype control antibody
8 | – | – | – | 0.49 | 0.54 | 0.425 | 2.7 | 0.000348 | 129000 | TSHB-24 (antibody, V domains shown) VH: EVQLVQSGAEVKKPGESLKISCKASGYSLTDNWIGWVRQKPGKGLEWMGIIYPGDSDTRYSPSFQGQVTISADKSISTAYLQWSSLKASDTAIYYCVGLDWNYNPLRYWGQGTLVTVSS VL: QSVLTQPPSVSGAPGQRVTISCSGSSSDIGSNYVSWYQQLPGTAPKLLIYDNNKRPSGVPDRFSGSKSGTSASLAITGLQAEDEADYYCGTWDSRLGIAVFGGGTKLTVL
9 | – | – | – | 0.473 | 0.552 | 0.395 | 3.1 | 0.000357 | 115000 | TSHB-21 (antibody, V domains shown) VH: EVQLVQSGAEVKKPGQSLKISCKASGYSLTDNWIGWVRQKPGKGLEWMGIIYPGDSDTRYSPSFQGQVTISADKSINTAYLQWSSLKASDTAIYYCVGLDWNYNPLRYWGPGTLVTVSS VL: QSVLTQPPSVSAAPGQKVTISCSGSSSDIGSNYVSWYQQLPGTAPKLLIYDNNKRPSGIPDRFSGSKSGTSATLGITGLQTGDEADYYCATWDSRLGIAVFGGGTQLTVL
10 | – | – | – | 0.466 | 0.538 | 0.512 | 2.45 | 0.000344 | 141000 | TSHB-23 (antibody, V domains shown) VH: EVQLVQSGAEVKKPGESLKISCKASGYSLTDNWIGWVRQKPGKGLEWMGIIYPGDSDTRYSPSFQGQVTISADKSISTAYLQWSSLKASDTAIYYCVGLDWNYNPLRYWGQGTLVTVSS VL: QSVLTQPPSVSAAPGQKVTISCSGSSSDIGSNYVSWYQQLPGTAPKLLIYDNNKRPSGIPDRFSGSKSGTSATLGITGLQTGDEADYYCGTWDSRLGIAVFGGGTQLTVL
